Assay results taken from patent US20060172940.

Target: T1, synthetic full length mucocidin peptide (46-mer)
T1 chain: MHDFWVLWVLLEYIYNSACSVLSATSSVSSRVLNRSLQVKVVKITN

B1: guinea pig liver transglutaminase (protein)
chain: AEDLILERCDLQLEVNGRDHRTADLCRERLVLRRGQPFWLTLHFEGRGYEAGVDTLTFNAVTGPDPSEEAGTMARFSLSSAVEGGTWSASAVDQQDSTVSLLLSTPADAPIGLYRLSLEASTGYQGSSFVLGHFILLYNPRCPADAVYMDSDQERQEYVLTQQGFIYQGSAKFINGIPWNFGQFEDGILDICLMLLDTNPKFLKNAGQDCSRRSRPVYVGRVVSAMVNCNDDQGVLQGRWDNNYSDGVSPMSWIGSVDILRRWKDYGCQRVKYGQCWVFAAVACTVLRCLGIPTRVVTNFNSAHDQNSNLLIEYFRNESGEIEGNKSEMIWNFHCWVESWMTRPDLEPGYEGWQALDPTPQEKSEGTYCCGPVPVRAIKEGHLNVKYDAPFVFAEVNADVVNWIRQKDGSLRKSINHLVVGLKISTKSVGRDEREDITHTYKYPEGSEEEREAFVRANHLNKLATKEEAQEETGVAMRIRVGQNMTMGSDFDIFAYITNGTAESHECQLLLCARIVSYNGVLGPVCSTNDLLNLTLDPFSENSIPLHILYEKYGDYLTESNLIKVRGLLIEPAANSYVLAERDIYLENPEIKIRVLGEPKQNRKLIAEVSLKNPLPVPLLGCIFTVEGAGLTKDQKSVEVPDPVEAGEQAKVRVDLLPTEVGLHKLVVNFECDKLKAVKGYRNVIIGPA
Question: Which “Transglutaminase catalyzed monodansylcadaverine (MDC) incorporation into mucocidin” value does the source give for B1 here?
Answer: The time-dependent uptake of MDC into mucocidin (FIG. 4C) was detected only in the presence of Ca^++ but not in its absence
